B1: E3 ubiquitin-protein ligase LRSAM1 (Homo sapiens), Q6UWE0 (parent)
chain: MPLFFRKRKPSEEARKRLEYQMCLAKEAGADDILDISKCELSEIPFGAFATCKVLQKKVLIVHTNHLTSLLPKSCSLLSLATIKVLDLHDNQLTALPDDLGQLTALQVLNVERNQLMQLPRSIGNLTQLQTLNVKDNKLKELPDTVGELRSLRTLNISGNEIQRLPQMLAHVRTLEMLSLDASAMVYPPREVCGAGTAAILQFLCKESGLEYYPPSQYLLPILEQDGIENSRDSPDGPTDRFSREELEWQNRFSDYEKRKEQKMLEKLEFERRLELGQREHTQLLQQSSSQKDEILQTVKEEQSRLEQGLSEHQRHLNAERQRLQEQLKQTEQNISSRIQKLLQDNQRQKKSSEILKSLENERIRMEQLMSITQEETESLRRRDVASAMQQMLTESCKNRLIQMAYESQRQNLVQQACSSMAEMDERFQQILSWQQMDQNKAISQILQESAMQKAAFEALQVKKDLMHRQIRSQIKLIETELLQLTQLELKRKSLDTESLQEMISEQRWALSSLLQQLLKEKQQREEELREILTELEAKSETRQENYWLIQYQRLLNQKPLSLKLQEEGMERQLVALLEELSAEHYLPIFAHHRLSLDLLSQMSPGDLAKVGVSEAGLQHEILRRVQELLDAARIQPELKPPMGEVVTPTAPQEPPESVRPSAPPAELEVQASECVVCLEREAQMIFLNCGHVCCCQQCCQPLRTCPLCRQDIAQRLRIYHSS

Variants of: B1
Conditions: with ube2b_rabit UBE2B

Row | Variant | effect of a mutation on the interaction
1 | Q573K | with no effect
2 | P707L | disrupting interaction strength
3 | C694Y | disrupting interaction strength
